This is an account of results in patent publication US20200270588A1, “GLUCOSYL TRANSFERASE POLYPEPTIDES AND METHODS OF USE” (Syngenta Participations AG, priority 2017, published 2020).

The nature of the assay: UDP luminescence plate assay of E. coli extracts, mutants within SEQ ID No: 17, 2 mM metribuzin. The class given is biochemical, Zea mays. The settings on record: for metribuzin signal relative to the SEQ ID No:17 control (first parentheses) / ratio of metribuzin to DMSO signal (second parentheses) / SIGNAL: metribuzin signal of mutant divided by the signal of the SEQ ID No. 17 control / luminescence signal observed with 2 mM metribuzin: 2 mM metribuzin; for metribuzin signal relative to the SEQ ID No:17 control (first parentheses) / ratio of metribuzin to DMSO signal (second parentheses): additional mutation in SEQ ID No: 17; for SIGNAL: metribuzin signal of mutant divided by the signal of the SEQ ID No. 17 control: relative to SEQ ID No: 17 control; for luminescence signal in the DMSO control / luminescence signal observed with 2 mM metribuzin: additional mutations within SEQ ID No: 17; for luminescence signal in the DMSO control: DMSO in place of metribuzin; for luminescence signal observed with 2 mM metribuzin: control = SEQ ID No: 17. The protocol:
Activities observed with metribuzin were generally lower in magnitude than seen with herbicide V in the previous examples. For example, in one plate assay run with 2 mM metribuzin using 5 ul of diluted extract of plate-grown BL21DE3 cells expressing w/t bx9 and assayed for 40 minutes (as described in Example 2) the UDP-Glo luminescence signal was ˜3.4 E6 as compared with ˜2.3E6 in the DMSO control and ˜1.7E6 in the H24A null mutant control. […] It was therefore important to assess potential improvements in the metribuzin activity of the various mutants relative to the wild type bx9 enzyme based not only on the H24A null activity control but also based upon controls with DMSO in place of metribuzin acceptor substrate. In some plate assays (using more dilute extracts) the metribuzin signals from the w/t enzyme was the same or barely greater than the DMSO control. Additionally, some mutations gave an increase in the ‘background’ UDP-glucose hydrolysis activity with just DMSO present that was the same or similar to the magnitude of the increase in signal seen with metribuzin. In these instances it is therefore uncertain from just this UDP-Glo assay method whether the specific metribuzin signal (glucosylation of metribuzin) is improved or not i.e. the signal seen with metribuzin may or may not all or to a large part be attributable to increased background hydrolysis). […] Thus the ratio of the metribuzin to DMSO signal as well as the increase in signal relative to the w/t bx9 is used to help distinguish those mutations most likely to offer the highest activity to metribuzin. A follow up assay monitored by, for example, LC MS is one method to distinguish these cases more quantitatively. The tables below summarise the results from two different sets of luminescence plate assays to detect single mutations giving improvements in the magnitude of the signal with metribuzin relative to w/t bx9 and/or the apparent specificity for metribuzin as measured by the deviation of the ratio of metribuzin to DMSO control activity from the bx9 w/t value of around unity.
A further separate screen was carried out to explore a library of additional mutations at various positions within the context of SEQ ID No: 17 for improved metribuzin activity. These were assayed, assessed and scored as above. […] These were S75K (2.5)(1.25), A236G (4.0)(1.15), A433V (3.3)(9.0) and R449C (1.8)(1.2).
A yet further and more comprehensive screen was carried out to explore saturation mutagenesis at all remaining amino acid positions within the context of SEQ ID No:17 for improved metribuzin activity. Again these were assayed, assessed and scored as above and the results of (out of the thousands screened) of the subset that were of interest are summarized in Table 16.

B1: I216Y: additional mutation in SEQ ID No: 17 (protein)
chain: MASSRTGAGAGGRVVVFPFPFQGHFNPVMRLARALHARGLAITVFHSGALDPADYPADYRFVPVTVEADPKLLASEDIAAIVTTLNASCDAPFRARLSALLAAEGRDSVRCVFTDVVWNAVLTASSDLGVPALGMMTASAASLRDYMAYRTLIDKGYLPVKEERKEDPVPELPPYLVKDLLRVDTSDLEEFAELLARTVTAARRASGLIFNTFPLYETDTLAEIHKALSVPVFAVAPLNKLVPTATASLHGVVQADRGCLQWLDTQQPGSVLYVSFGSFAAMDPHEFVELAWGLADSKRPFVWVVRPNLIRGFESGALPDGVEDEVRGRGIVVKWAPQEEVLAHPAVGGFLTHNGWNSTVEAISEGVPMVCCPRHGDQFGNMRYVCDVWKVGTELVGEQLERGQVKAAIDRLFGTKEGEEIKERMKEFKIAAAKGIGIGVDVDETASPRTDLTDLVDLIKSF
modifications: Mutated Zea mays Bx9 protein sequence
Regarding B1, the “metribuzin signal relative to the SEQ ID No:17 control (first parentheses)” value worked out at 3.5, the “ratio of metribuzin to DMSO signal (second parentheses)” value (shortened to “ratio of metribuzin to DMSO signal”) was 1.33, the “SIGNAL: metribuzin signal of mutant divided by the signal of the SEQ ID No. 17 control” value was 3.50 and the “luminescence signal in the DMSO control” value is listed as 4.79E+06. The “luminescence signal observed with 2 mM metribuzin” value (“luminescence signal observed” below) was determined as 6.38E+06.

B2: E339V: additional mutation in SEQ ID No: 17 (protein)
chain: MASSRTGAGAGGRVVVFPFPFQGHFNPVMRLARALHARGLAITVFHSGALDPADYPADYRFVPVTVEADPKLLASEDIAAIVTTLNASCDAPFRARLSALLAAEGRDSVRCVFTDVVWNAVLTASSDLGVPALGMMTASAASLRDYMAYRTLIDKGYLPVKEERKEDPVPELPPYLVKDLLRVDTSDLEEFAELLARTVTAARRASGLIFNTFPLIETDTLAEIHKALSVPVFAVAPLNKLVPTATASLHGVVQADRGCLQWLDTQQPGSVLYVSFGSFAAMDPHEFVELAWGLADSKRPFVWVVRPNLIRGFESGALPDGVEDEVRGRGIVVKWAPQVEVLAHPAVGGFLTHNGWNSTVEAISEGVPMVCCPRHGDQFGNMRYVCDVWKVGTELVGEQLERGQVKAAIDRLFGTKEGEEIKERMKEFKIAAAKGIGIGVDVDETASPRTDLTDLVDLIKSF
modifications: Mutated Zea mays Bx9 protein sequence
For the molecule B2, the “metribuzin signal relative to the SEQ ID No:17 control (first parentheses)” value was 2.6, the “ratio of metribuzin to DMSO signal” value is on record as 1.51, the “SIGNAL: metribuzin signal of mutant divided by the signal of the SEQ ID No. 17 control” value was found to be 2.64 and the “luminescence signal in the DMSO control” value was determined as 3.18E+06. The “luminescence signal observed” value is on record as 4.81E+06.

B3: A234C: additional mutation in SEQ ID No: 17 (protein)
chain: MASSRTGAGAGGRVVVFPFPFQGHFNPVMRLARALHARGLAITVFHSGALDPADYPADYRFVPVTVEADPKLLASEDIAAIVTTLNASCDAPFRARLSALLAAEGRDSVRCVFTDVVWNAVLTASSDLGVPALGMMTASAASLRDYMAYRTLIDKGYLPVKEERKEDPVPELPPYLVKDLLRVDTSDLEEFAELLARTVTAARRASGLIFNTFPLIETDTLAEIHKALSVPVFCVAPLNKLVPTATASLHGVVQADRGCLQWLDTQQPGSVLYVSFGSFAAMDPHEFVELAWGLADSKRPFVWVVRPNLIRGFESGALPDGVEDEVRGRGIVVKWAPQEEVLAHPAVGGFLTHNGWNSTVEAISEGVPMVCCPRHGDQFGNMRYVCDVWKVGTELVGEQLERGQVKAAIDRLFGTKEGEEIKERMKEFKIAAAKGIGIGVDVDETASPRTDLTDLVDLIKSF
modifications: Mutated Zea mays Bx9 protein sequence
With B3, the “metribuzin signal relative to the SEQ ID No:17 control (first parentheses)” value amounted to 3.0, the “ratio of metribuzin to DMSO signal” value amounted to 1.29, the “SIGNAL: metribuzin signal of mutant divided by the signal of the SEQ ID No. 17 control” value came out at 2.96 and the “luminescence signal in the DMSO control” value was determined as 4.20E+06. Besides, the “luminescence signal observed” value was found to be 5.40E+06.

B4: W303L: additional mutation in SEQ ID No: 17 (protein)
chain: MASSRTGAGAGGRVVVFPFPFQGHFNPVMRLARALHARGLAITVFHSGALDPADYPADYRFVPVTVEADPKLLASEDIAAIVTTLNASCDAPFRARLSALLAAEGRDSVRCVFTDVVWNAVLTASSDLGVPALGMMTASAASLRDYMAYRTLIDKGYLPVKEERKEDPVPELPPYLVKDLLRVDTSDLEEFAELLARTVTAARRASGLIFNTFPLIETDTLAEIHKALSVPVFAVAPLNKLVPTATASLHGVVQADRGCLQWLDTQQPGSVLYVSFGSFAAMDPHEFVELAWGLADSKRPFVLVVRPNLIRGFESGALPDGVEDEVRGRGIVVKWAPQEEVLAHPAVGGFLTHNGWNSTVEAISEGVPMVCCPRHGDQFGNMRYVCDVWKVGTELVGEQLERGQVKAAIDRLFGTKEGEEIKERMKEFKIAAAKGIGIGVDVDETASPRTDLTDLVDLIKSF
modifications: Mutated Zea mays Bx9 protein sequence
As to B4, the “metribuzin signal relative to the SEQ ID No:17 control (first parentheses)” value worked out at 2.3, the “ratio of metribuzin to DMSO signal” value was 1.35, the “SIGNAL: metribuzin signal of mutant divided by the signal of the SEQ ID No. 17 control” value is on record as 2.30 and the “luminescence signal in the DMSO control” value stood at 3.10E+06. Besides, the “luminescence signal observed” value was 4.20E+06.

B5: F313M: additional mutation in SEQ ID No: 17 (protein)
chain: MASSRTGAGAGGRVVVFPFPFQGHFNPVMRLARALHARGLAITVFHSGALDPADYPADYRFVPVTVEADPKLLASEDIAAIVTTLNASCDAPFRARLSALLAAEGRDSVRCVFTDVVWNAVLTASSDLGVPALGMMTASAASLRDYMAYRTLIDKGYLPVKEERKEDPVPELPPYLVKDLLRVDTSDLEEFAELLARTVTAARRASGLIFNTFPLIETDTLAEIHKALSVPVFAVAPLNKLVPTATASLHGVVQADRGCLQWLDTQQPGSVLYVSFGSFAAMDPHEFVELAWGLADSKRPFVWVVRPNLIRGMESGALPDGVEDEVRGRGIVVKWAPQEEVLAHPAVGGFLTHNGWNSTVEAISEGVPMVCCPRHGDQFGNMRYVCDVWKVGTELVGEQLERGQVKAAIDRLFGTKEGEEIKERMKEFKIAAAKGIGIGVDVDETASPRTDLTDLVDLIKSF
modifications: Mutated Zea mays Bx9 protein sequence
With B5, the “metribuzin signal relative to the SEQ ID No:17 control (first parentheses)” value is 1.9, the “ratio of metribuzin to DMSO signal” value is on record as 1.30, the “SIGNAL: metribuzin signal of mutant divided by the signal of the SEQ ID No. 17 control” value is 1.91 and the “luminescence signal in the DMSO control” value was found to be 2.69E+06. In addition, the “luminescence signal observed” value turned out to be 3.48E+06. For the same molecule, where the note is “2 mM metribuzin vs DMSO control, same mutant”, the “RATIO of the metribuzin signal to the DMSO signal” value was 1.29.

B6: P284F: additional mutation in SEQ ID No: 17 (protein)
chain: MASSRTGAGAGGRVVVFPFPFQGHFNPVMRLARALHARGLAITVFHSGALDPADYPADYRFVPVTVEADPKLLASEDIAAIVTTLNASCDAPFRARLSALLAAEGRDSVRCVFTDVVWNAVLTASSDLGVPALGMMTASAASLRDYMAYRTLIDKGYLPVKEERKEDPVPELPPYLVKDLLRVDTSDLEEFAELLARTVTAARRASGLIFNTFPLIETDTLAEIHKALSVPVFAVAPLNKLVPTATASLHGVVQADRGCLQWLDTQQPGSVLYVSFGSFAAMDFHEFVELAWGLADSKRPFVWVVRPNLIRGFESGALPDGVEDEVRGRGIVVKWAPQEEVLAHPAVGGFLTHNGWNSTVEAISEGVPMVCCPRHGDQFGNMRYVCDVWKVGTELVGEQLERGQVKAAIDRLFGTKEGEEIKERMKEFKIAAAKGIGIGVDVDETASPRTDLTDLVDLIKSF
modifications: Mutated Zea mays Bx9 protein sequence
For B6, the “metribuzin signal relative to the SEQ ID No:17 control (first parentheses)” value was 1.8, the “ratio of metribuzin to DMSO signal” value amounted to 1.29, the “SIGNAL: metribuzin signal of mutant divided by the signal of the SEQ ID No. 17 control” value is 1.81 and the “luminescence signal in the DMSO control” value is on record as 2.55E+06. In addition, the “luminescence signal observed” value came to 3.30E+06.
